Data on 1 molecule can be found in US20170152286A1.

This assay deals with MAGUK GK domain. In words: ITC.

Positions of bridges follow the written chain, without caps; N, C: chain ends. Non-standard residues stand in square brackets, D forms with d. No end group written: not given here. Lys(5-OH) = 5-hydroxyl lysine

B1: K(OH)D lactam-type stapled peptide (2), i, i+4 stapled peptide made from linear peptide Ala-Arg-Arg-Asp(salicylaldehyde ester)-Glu-Tyr-Leu-Lys(5-OH)-Ala-Ile-Gln (peptide)
peptide: ARRDEYL[Lys(5-OH)]AIQ-NH2
modifications: lactam 4-8
B1: the dissociation constant (Kd) amounted to 5.9 µM.
